Data published in the supplement of paper PMC12042874.
± gives the uncertainty stated by the source.

Experiment: amyloid nucleation score (Sup35N fusion, yeast selection) (log enrichment); library NNK3; higher = more nucleation; inactive = no reads after selection
Method in brief: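 Yeast lacking psi expressed peptides of 20 random codons fused to Sup35N, received 100 μM copper sulfate for 24 hours, and were then grown for 7 days at 30°C on medium lacking adenine and uracil. Illumina sequencing of input and output plasmid inserts provided the reads. Nucleation scores are DiMSum log enrichments of output over input, centred on the mode of non-aggregating sequences. Any sequence with under 100 input reads was excluded.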

Substance	amyloid nucleation score
VEIKYSVFLRWHVMRDDRLD	inactive
VEKAIAFGNF	inactive
VEMFNITAYTIKSLRVIGLV	inactive
VEMGVLSGFK	-0.288 ± 0.75
VENKMFDRGGFYVWMCGLSD	inactive
VENLHNHYQYVFKNGMCDG	0.263 ± 0.22
VEQMLVFDTPLSYLVKQVKF	inactive
VESFICDMIVSPHSLS	inactive
VEWMFTEMSVCLE	inactive
VEYQNI	inactive
VFAARAKRY	inactive
VFASQ	1.3 ± 0.13
VFCAGLFDTMCCSDGASVEV	1.16 ± 0.095
VFDPGLSNCWRVTGWNED	inactive
VFDSCRTFSMYTDLLGWEWR	inactive
VFIGSVGFSDLWKLSVAYNY	inactive
VFKCCVLFGGSRWFTLFLWF	inactive
VFLCMGTYDTCFL	0.638 ± 0.16
VFLGCYSSYIVIWDARAPG	1.96 ± 0.071
VFLNQCLSGVMGLEGVSLDR	inactive
VFLPLPPCTC	inactive
VFLQRCVDYMCDRNCFSVFA	inactive
VFMNKGQRV	inactive

Substance	amyloid nucleation score
VFNKCVQFYFILGRNNEIWI	2.56 ± 0.077
VFPKSYTPDQTFPCNSSLAK	inactive
VFQRR	inactive
VFRLLVDKYCGFSPVGLPDV	inactive
VFTFAWMLNRVISNYHPTIP	inactive
VFVAMNVFMVWICRLQGSLT	0.508 ± 0.33
VFVFDVLFGLLNMANFREVD	-0.713 ± 0.88
VFVPVYPEFFVRSG	inactive
VFVVGSVSRCCKKLVT	inactive
VGAGWYN	inactive
VGCHLWEHWRSMQVR	inactive
VGERLANQIGTYCDDQWWTW	inactive
VGFILWFGGHCGS	0.659 ± 0.23
VGGPNCIQAFS	inactive
VGGQWGAYAAKA	inactive
VGIRWYGFDTCRRKFGTWNI	inactive
VGLISGVCDDGSGSMSSRLW	inactive
VGLIWVVSFIDKNSYGWSGT	inactive
VGLWVAYYGRETNRVDNYVT	inactive
VGNGYTMSG	inactive
VGNQKIIMRGALELDRELTC	inactive
VGRRDN	inactive
VGRSNH	inactive

Substance	amyloid nucleation score
VGSGCNISTKTACFYMKLIA	inactive
VGSQEANLAVGI	inactive
VGYMALQETILVIVDDGVTE	inactive
VHNYHERALKKHEGTTVRNF	0.154 ± 0.4
VHSFLKYGGNSAIGLLPEDS	inactive
VHTCGRKVWFEA	inactive
VICGCWIFFFYFLK	-0.354 ± 0.73
VIDRNWRRLHSWVGLVGRAR	inactive
VIFISILPLRKCSDKWEDNN	inactive
VIFYCFSRILTYKSIVVG	inactive
VIGAFRLYNFNVALISSNIS	inactive
VIGRTASDGVRCCRVGMMRR	inactive
VIGRVRIGLVFRSTIGFSEG	inactive
VIIPNFWLFEGLRAGKRRG	inactive
VIITNEMVDRVDGDTTSYMH	-0.003 ± 1
VIITSSTVLMFRFLEYRESQ	inactive
VIKTHMWLGL	0.633 ± 0.24
VINVT	inactive
VIPARADATGPKEHGWLQLQ	inactive
VIQIYIMRCLYDYYI	2.8 ± 0.063
VIRGRMMCHGIGAYVVWKSH	inactive
VIRQVCYYRLGEWLLGAR	inactive
VIRVKSSCLVLLEHKLLACG	inactive

Substance	amyloid nucleation score
VISGNNVCSIRSDFRKIFFY	0.762 ± 0.17
VISMRVTGVVHRFWNEVYRD	1.22 ± 0.1
VITLYVVGVYWGGNDIGDFM	0.976 ± 0.19
VIVRRSQFTELICLFYNFTM	inactive
VIWVPVKIR	inactive
VIYLKTRWNSWCPAGGVLLC	inactive
VKDSLMGCKIPCN	inactive
VKDYNYKFWALPSVPREWVF	inactive
VKLNYISLDENVRSVKQVMI	inactive
VKMSWHHHCLFLICLCTSYE	0.606 ± 0.13
VKRADNSSSALRWYLNMYNL	inactive
VKSFCCFGWVLSP	inactive
VKSLIELCRYNRPLALDLNI	-0.519 ± 0.8
VKTKPFHLRYR	inactive
VKTWCYRCCSGALSLS	inactive
VKYYDFCEPGRGYKDIRRL	inactive
VLAGACDYPYGNVLV	inactive
VLCNYGCGIDFAV	0.181 ± 0.53
VLCSVFIFFLRGFDS	2.3 ± 0.066
VLDAIVATDRL	inactive
VLDKVKWTLLCNGRRAVAPW	-0.089 ± 1.4
VLILCIKNTCLNQCASSCHR	2.02 ± 0.068
VLIMRCLKWFASMLCFSIPK	inactive

Substance	amyloid nucleation score
VLIYRRGFNYLRVLCCTTGF	inactive
VLKKGGVFVWFAWECNTCSD	inactive
VLKKGYNKRYVGECIANCTV	inactive
VLLIWIIVPTWF	0.5 ± 0.14
VLLVHGKEWTEMLAHTLRCG	inactive
VLRGHSMHRSMGLWLA	inactive
VLRIFISWCSVQLSKRLWWT	inactive
VLRVDRGGTIMRYPCLG	inactive
VLSIDTDYKFIGHASDYASI	0.959 ± 0.16
VLSMRHSNTGMARCTDW	inactive
VLSQRVPQMHMTNGVTEASV	inactive
VLTFNKGFFGC	1.26 ± 0.11
VLTVYDCGLEQPW	inactive
VLVIIKSD	inactive
VLVLAMITFYNLYMYYDVGR	inactive
VLYSCERKELVIGMKVLVWE	inactive
VLYYCGFSITARKSEKLVWP	inactive
VMDLLK	inactive
VMGMDIIRIPS	inactive
VMGVAPSYASTYLLVILNMG	1.39 ± 0.15
VMIVRLYVIYPMFEVKP	inactive
VMKSYDWEDWSSDPFIFRYV	inactive
VMMFYNILHSQIDKLFKLLA	inactive

Substance	amyloid nucleation score
VMQHNVGLFNDHKYDSCRAC	inactive
VMTITLVLKWYGLLT	inactive
VMVFN	0.635 ± 0.36
VMYGIL	inactive
VNFACSIGGRGLFGFGIKVS	inactive
VNFCFFFKLLRGRSGYHLSW	2.15 ± 0.09
VNFFGR	inactive
VNGLLAIRVYCKHWP	inactive
VNHKFKSSFFNNH	-0.27 ± 1.1
VNKVKILCYGHHFKGMWDLA	inactive
VNNPQVDHRVLFNNM	-0.426 ± 0.61
VNRFVDTVGKGRITIIGCEH	inactive
VNRKEIRHVRLLCPSRGSVA	-0.091 ± 0.43
VNTLPQLLSLYSDLLRGESL	-0.218 ± 1.4
VNYRSNIFNHYCSFSRN	0.934 ± 0.11
VNYRTQRRTQYTQCTRKVGG	inactive
VPDLYSTEDGFSCCVSEYCT	inactive
VPIRECTMLSSMSWTGEPSY	inactive
VPMFSSLCPYTISLFQGTSP	inactive
VPNEVFISYLV	inactive
VQDPDL	inactive
VQFMMYVGTGIGAVGSGVNY	1.53 ± 0.11
VQLFSQNALPMFNSWKYYDH	inactive

Substance	amyloid nucleation score
VQSSPVYMFMTNNSF	1.8 ± 0.056
VQWCPNVYTDSQVCRYVSSR	inactive
VRAVLIAYGLK	inactive
VRCYRVIMRLTFAETCQGHP	inactive
VREFYN	inactive
VRIFSTVEKASP	inactive
VRMGVNLGNKTLNTWESSCD	inactive
VRNKLNCKRSGA	inactive
VRPLVDYMMQNM	inactive
VRRLFVARCRYCQLMYFRGE	inactive
VRSRRLLCKNRTVVEARNVV	inactive
VRTRMEPRG	inactive
VRVRVHVVVVVKLLKMVGAV	inactive
VRVSNYTRVLVYKDRVS	inactive
VRVSRNGSVLY	inactive
VRWQYVYMPPA	inactive
VRYPRSLVCYWYGRNHAVWA	inactive
VRYVNGSKCTFNLS	inactive
VSACLNSGGQHSQRHANMAV	inactive
VSATSQYQSICLSLNTKNRF	inactive
VSCRQLYQSIGGRKPDRRFI	inactive
VSEIFFADVFISWYGISRVL	inactive
